Test results published in patent US20200190192A1 (SUTRO BIOPHARMA, published 2020).
Positions count from the first letter of the chain named. Numbers in names are those of the source.

T1: cynomolgus Tim-3 expressed on CHO cells (cynomolgus monkey)
T1 construct: also called cTim-3; Cyno Tim-3 (CHO)
T1 chain: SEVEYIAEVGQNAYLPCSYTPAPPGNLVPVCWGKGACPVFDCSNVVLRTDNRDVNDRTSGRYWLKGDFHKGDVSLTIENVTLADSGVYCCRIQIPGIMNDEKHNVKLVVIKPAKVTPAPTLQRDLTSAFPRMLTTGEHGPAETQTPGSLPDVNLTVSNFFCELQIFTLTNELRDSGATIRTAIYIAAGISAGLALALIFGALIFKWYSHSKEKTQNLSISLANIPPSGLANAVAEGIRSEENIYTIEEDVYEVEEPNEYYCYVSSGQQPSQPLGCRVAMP

B1: h22E11-VK2-28 × h22E11-VH1-69 (antibody, V domains shown)
VH: QVQLVQSGAEVKKPGSSVKVSCKVSGFSLTSYGVHWVRQAPGQGLEWLVVIWSDGSTTYNQKFQGRVTITKDESTSTVYMELSSLRSEDTAVYYCARQGGYRYDDAMDYWGQGTLVTVSS
VL: DIVLTQSPLSLPVTPGEPASISCKASQSVDYDGNSYVNWYLQKPGQSPQLLIYAASNLESGVPDRFSGSGSGTDFTLKISRVEAEDVGVYYCQQSNEDPYTFGQGTKVEIK
notes: Humanized m22E11
B2: h22E11-VK2-28 × h22E11-VH3-23 (antibody, V domains shown)
VH: EVQLLESGGGLVQPGGSLRLSCAVSGFSLTSYGVHWVRQAPGKGLEWLVVIWSDGSTTYNDSVKGRFTISKDNSKNTVYLQMNSLRAEDTAVYYCARQGGYRYDDAMDYWGQGTLVTVSS
VL: B1 VL
notes: Humanized m22E11
B3: h22E11-VK2-28 × h22E11-VH4-30-4 (antibody, V domains shown)
VH: QVQLQESGPGLVKPSQTLSLTCTVSGFSLTSYGVHWIRQPPGKGLEWLVVIWSDGSTTYNPSLKSRVTISKDTSKNQVSLKLSSVTAADTAVYYCARQGGYRYDDAMDYWGQGTLVTVSS
VL: B1 VL
notes: Humanized m22E11
B4: h22E11-VK4-1 × h22E11-VH1-69 (antibody, V domains shown)
VH: B1 VH
VL: DIVLTQSPDSLAVSLGERATINCKASQSVDYDGNSYVNWYQQKPGQPPKLLIYAASNLESGVPDRFSGSGSGTDFTLTISSLQAEDVAVYYCQQSNEDPYTFGQGTKVEIK
notes: Humanized m22E11
B5: h22E11-VK2-28 × h22E11-VH5-51 (antibody, V domains shown)
VH: EVQLVQSGAEVKKPGESLKISCKVSGFSLTSYGVHWVRQMPGKGLEWLVVIWSDGSTTYNPSFQGQVTISKDKSISTVYLQWSSLKASDTAMYYCARQGGYRYDDAMDYWGQGTLVTVSS
VL: B1 VL
notes: Humanized m22E11
B6: h22E11-VK2-28 × h22E11-5-IgG-HC (antibody, V domains shown)
VH: B2 VH with L5V, D61S, S62A, V63L, G65S, S74A, T77S
VL: B1 VL
notes: Humanized m22E11
B7: 1353-G10 scFvFc-zwB × 1649-A01 Fab-zwA (parent) (bispecific antibody)
scFv: not shown
VH: EVQLVESGGGLVQPGGSLRLSCAASGFNISRYYIHWVRQAPGKGLEWVAGITPVRGYTEYADSVKDRFTISADTSKNTAYLQMNSLRAEDTAVYYCARGYVYRMWDSYDYWGQGTLVTVSS
VL: not shown
notes: Tim-3 heavy chain carries zwA (T350V/L351Y/F405A/Y407V) in CH3
B8: 1353-G10 scFvFc-zwB × 1649-A01 Hc zwA Y56D/TrstmbLC S56D (bispecific antibody)
scFv: not shown
VH: B7 VH with Y57D
VL: not shown
notes: Tim-3 heavy chain with zwA CH3 mutations
B9: 1353-G10 wt IgG (antibody, V domains shown)
VH: EVQLVQSGAEVKKPGASVKVSCKASGYRFPHYGISWVRQAPGQGLEWMGWISAYNGNTNYAQKLQGRVTMTTDTSTNTAYMELRSLRSDDTAVYYCARDVDYGTGSGYWGQGTLVTVSS
VL: SYELTQPPSVSVSPGQTARITCSGDALPKQYAYWYQQKPGQAPVMVIYKDTERPSGIPERFSGSSSGTKVTLTISGVQAEDEADYYCQSADNSITYRVFGGGTKVTVL
notes: IgG; also called Sample I
B10: 1353-G10 vk1-39 LC IgG (antibody, V domains shown)
VH: B9 VH
VL: DIQLTQSPSSLSASVGDRVTITCSGDALPKQYAYWYQQKPGKAPKLLIYKDTERPSGVPSRFSGSSSGTKVTLTISSLQPEDFATYYCQSADNSITYRVFGGGTKVEIK
notes: IgG; also called Sample K
B11: 1353-G10 H1 HC IgG (antibody, V domains shown)
VH: B9 VH with R28T, P30D, H31S
VL: B9 VL
notes: IgG; also called Sample J
B12: SRP1649-B06 (antibody, V domains shown)
VH: B7 VH with R31N, Y32H, Y33A, G50D, T52S, V54A, R55V, E59D, Y108F, Y110H
VL: not shown
notes: IgG with trastuzumab LC; HIS- and FLAG-tagged
B13: SRP1649-D11 (antibody, V domains shown)
VH: B7 VH with R31G, Y33V, G50D, T52I, V54T, R55A, D66G, Y108F
VL: not shown
notes: as for B12
B14: SRP1649-E08 (antibody, V domains shown)
VH: EVQLVESGGSLVQPGGSLRLSCAASGFSISNYVIHWVRQAPGKGLEWVADISPDGGFTDYADSVKDRFTISADTSKNTAYLQMNSLRAEDTAVYYCARGHVYRLWDSFDYWGRGTLVTVSS
VL: not shown
notes: as for B12
B15: SRP1649-B09 (antibody, V domains shown)
VH: B7 VH with S30R, R31N, Y32N, Y33A, G50D, V54A, R55G, E59G, V101I, Y108L
VL: not shown
notes: as for B12
B16: SRP1649-D06 (antibody, V domains shown)
VH: B7 VH with S30R, R31N, Y32H, Y33A, G50D, T52A, V54A, R55G, E59D
VL: not shown
notes: as for B12
B17: SRP1649-E10 (antibody, V domains shown)
VH: B7 VH with R31N, Y32N, Y33V, A49G, G50D, T52M, V54G, R55G, Y57S, E59D
VL: not shown
notes: as for B12
B18: SRP1649-C05 (antibody, V domains shown)
VH: B7 VH with S30G, R31K, Y32H, Y33V, G50D, T52V, V54N, R55G, Y108F
VL: not shown
notes: as for B12
B19: SRP1649-G08 (antibody, V domains shown)
VH: B7 VH with R31N, Y33V, G50A, V54D, R55G, Y57I, D66G, T69A
VL: not shown
notes: as for B12
B20: SRP1649-H02 (antibody, V domains shown)
VH: B7 VH with S30R, R31S, Y33A, G50D, V54A, R55G, Y57D, D66G, V101I
VL: not shown
notes: as for B12
B21: 1353-G10 H1/vk1-39 IgG (antibody, V domains shown)
VH: B9 VH with R28T, P30D, H31S
VL: B10 VL
notes: IgG; also called Sample L

Target: T2, recombinant human Tim-3-Fc (R&D Systems, 2365-TM) (human, UniProt Q8TDQ0 22-202, biotinylated in the Galectin-9 competition ELISA (sites not given))
T2 construct: Bought protein; also called huTim-3-Fc; biotinylated Tim-3-Fc; not shown: Fc of the bought fusion protein
Test: SPR Biacore, human Tim-3 Fc;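 further: antibodies captured on an anti-FLAG sensor surface, Tim-3-Fc flowed over as analyte at 25 °C in HBS-EP+ buffer, rates fit with a 1:1 Langmuir model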

Row | koff | Binder
1 | 0.000863 s⁻¹ | B1
2 | 0.000911 s⁻¹ | B2
3 | 0.00109 s⁻¹ | B3
4 | 0.000863 s⁻¹ | B4
5 | 0.000903 s⁻¹ | B5
6 | 0.00101 s⁻¹ | B6

Target: T3, human Tim-3 expressed on the cell surface (human, UniProt Q8TDQ0 22-301)
T3 construct: also called hTim-3; Human Tim-3 (CHO)
Test: flow cytometry, CHO-human Tim-3 cells

Row | Kd | Binder
7 | 0.7 nM | B1
8 | 0.8 nM | B2
9 | 0.8 nM | B3
10 | 1 nM | B4
11 | 0.6 nM | B5
12 | 0.8 nM | B6

Target: T3, human Tim-3 expressed on the cell …
Test: flow cytometry, CHO-human Tim-3 cells
Design: Bmax: unit not given here
Remark: another data set of the same source

Row | Bmax | Kd | Binder
13 | 14700 | 3.9 nM | B7
14 | 11200 | 4.5 nM | B8

Target: T2, recombinant human Tim-3-Fc (R&D …)
Test: SPR Biacore, human Tim-3 Fc; KD estimated;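 on koff: antibodies captured on an anti-FLAG sensor surface, Tim-3-Fc flowed over as analyte at 25 °C in HBS-EP+ buffer, rates fit with a 1:1 Langmuir model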

Row | Kd | Binder
15 | 5.4 nM | B1
16 | 5.9 nM | B2
17 | 7.9 nM | B3
18 | 5.5 nM | B4
19 | 4.8 nM | B5
20 | 6.7 nM | B6

Target: PD-1 (SPR analyte of the PD-1 kinetics) (Homo sapiens (Human), UniProt Q15116 25-167, limits assumed)
Test: SPR, PD-1 kinetics

Row | Kd | koff | kon | Binder
21 | 0.96 nM | 0.00059 s⁻¹ | 620000 M⁻¹ s⁻¹ | B9
22 | 0.85 nM | 0.00049 s⁻¹ | 580000 M⁻¹ s⁻¹ | B10
23 | 2.3 nM | 0.0026 s⁻¹ | 1.1e+06 M⁻¹ s⁻¹ | B11

Target: T1, cynomolgus Tim-3 expressed on CHO cells
Test: flow cytometry, CHO-cyno Tim-3 cells

Row | Kd | Binder
24 | 1.7 nM | B1
25 | 5.4 nM | B2
26 | 4.3 nM | B3
27 | 2.5 nM | B4
28 | 2.3 nM | B5
29 | 4.1 nM | B6

Target: T3, human Tim-3 expressed on the cell …
Test: flow cytometry, activated human CD4+ T cells

Row | Kd | Binder
30 | 2.3 nM | B1
31 | 1.7 nM | B2
32 | 9.2 nM | B3
33 | 6.3 nM | B4
34 | 0.7 nM | B5
35 | 3.3 nM | B6

Target: T4, human PD-1 expressed on CHO cells (human, UniProt Q15116 25-288)
T4 construct: also called hPD-1; CHO-hPD-1
Test: flow cytometry, CHO-human PD-1 cells
Design: Bmax: unit not given here

Row | Bmax | Kd | Binder
36 | 13300 | 1.4 nM | B7
37 | 13300 | 2.3 nM | B8

Target: T1, cynomolgus Tim-3 expressed on CHO cells
Test: flow cytometry, CHO-cyno Tim-3 cells
Remark: another data set of the same source

Row | Kd | Binder
38 | 1.9 nM | B12
39 | 2.2 nM | B13
40 | 12.4 nM | B14
41 | 9.4 nM | B15
42 | 1 nM | B16
43 | 7.4 nM | B17
44 | 0.8 nM | B18
45 | 9.3 nM | B19
46 | 2.2 nM | B20

Target: T5, human Tim-3 (Biacore analyte; TIM-3-Fc or TIM-3-HIS, not said which) (human, UniProt Q8TDQ0 22-202)
T5 construct: also called TIM-3 antigen; not shown: Fc or HIS tag
Test: SPR Biacore, human Tim-3 (Fc or HIS not said)

Row | Kd | koff | kon | Binder
47 | 66.9 nM | 0.0126 s⁻¹ | 189000 M⁻¹ s⁻¹ | B12
48 | 10.6 nM | 0.00159 s⁻¹ | 150000 M⁻¹ s⁻¹ | B13
49 | 13.5 nM | 0.00182 s⁻¹ | 135000 M⁻¹ s⁻¹ | B14
50 | 18.8 nM | 0.00249 s⁻¹ | 133000 M⁻¹ s⁻¹ | B15
51 | 74.6 nM | 0.0205 s⁻¹ | 275000 M⁻¹ s⁻¹ | B16
52 | 49.7 nM | 0.014 s⁻¹ | 281000 M⁻¹ s⁻¹ | B17
53 | 13.7 nM | 0.00166 s⁻¹ | 121000 M⁻¹ s⁻¹ | B18
54 | 12.8 nM | 0.00243 s⁻¹ | 191000 M⁻¹ s⁻¹ | B19
55 | 23.9 nM | 0.00374 s⁻¹ | 157000 M⁻¹ s⁻¹ | B20

Target: T4, human PD-1 expressed on CHO cells
Test: hPD-1 binding titration (format not named; taken as cell binding)

Row | Bmax | Kd | Binder
56 | 2980 | 0.1 nM | B9
57 | 3630 | 0.8 nM | B10
58 | 4940 | 12.9 nM | B21
59 | 3410 | 0.5 nM | B11

Target: T6, biotinylated recombinant human PD-1 (AcroBiosystems) (human, UniProt Q15116 25-167, limits assumed, biotinylated (sites not given))
T6 construct: Bought protein; also called biotinylated PD-1
Test: competition, flow cytometry: biotin-PD-1 binding to CHO-human PD-L1 cells

Row | IC50 | Binder
60 | 191 nM | B7
61 | 82 nM | B8

Target: T3, human Tim-3 expressed on the cell …
Test: flow cytometry, CHO-human Tim-3 cells
Remark: another data set of the same source

Row | Kd | Binder
62 | 0.2 nM | B12
63 | 0.1 nM | B13
64 | 0.2 nM | B14
65 | 0.2 nM | B15
66 | 0.1 nM | B16
67 | 0.2 nM | B17
68 | 0.2 nM | B18
69 | 0.2 nM | B19
70 | 0.2 nM | B20

Target: T5, human Tim-3 (Biacore analyte; TIM-3-Fc …)
Test: SPR, Tim-3 analyte

Row | Kd | Binder
71 | 12 nM | B7
